Data from patent publication US20230106247A1 (L AND L BIO CO LTD NINGBO CHINA, published 2023).
Substitutions are numbered along the chain they refer to.

B1: humanized antibody mab14-h14 (antibody, human IgG4 S228P, kappa, V domains shown)
VH: QVQLVQSGAEVKKPGASVKVSCKASGYNFNIYWINWVRQAPGQGLEWIGNIYPSSISTNYNEKFKTRATLTVDKSTSTVYMELSSLRSEDTAVYYCARSEGTYYGGRYEGDWFGYWGQGTLVTVSS
VL: DIQMTQSPSSLSASVGDRVTITCRASQDIRNYLNWYQQKPGGTPKLLIYFTSTLHSGVPSRFSGSGSGTDYTLTISSLQPEDFATYYCQQGNTLPWTFGGGTKVEIKR
notes: hIgG4, κ
B2: humanized antibody mab14-h12 (antibody, human IgG4 S228P, kappa, V domains shown)
VH: B1 VH
VL: B1 VL with Y71F
notes: hIgG4, κ
B3: humanized antibody mab14-h13 (antibody, human IgG4 S228P, kappa, V domains shown)
VH: B1 VH
VL: B1 VL with T43A
notes: hIgG4, κ
B4: humanized antibody mab14-h5 (antibody, human IgG4 S228P, kappa, V domains shown)
VH: B1 VH
VL: B1 VL with P44V
notes: hIgG4, κ
B5: humanized antibody mab14-h15 (antibody, human IgG4 S228P, kappa, V domains shown)
VH: B1 VH
VL: B1 VL with G42K
notes: hIgG4, κ
B6: bispecific antibody LB503 (bispecific antibody, human IgG4 S228P, kappa)
light: EIVLTQSPATLSLSPGERATLSCRASKGVSTSGYSYLHWYQQKPGQAPRLLIYLASYLESGVPARFSGSGSGTDFTLTISSLEPEDFAVYYCQHSRDLPLTFGGGTKVEIKRTVAAPSVFIFPPSDEQLKSGTASVVCLLNNFYPREAKVQWKVDNALQSGNSQESVTEQDSKDSTYSLSSTLTLSKADYEKHKVYACEVTHQGLSSPVTKSFNRGECAGGGGSGGGGSGGGGSQVQLVQSGAEVKKPGASVKVSCKASGYNFNIYWINWVRQAPGQGLEWIGNIYPSSISTNYNEKFKTRATLTVDKSTSTVYMELSSLRSEDTAVYYCARSEGTYYGGRYEGDWFGYWGQGTLVTVSSGGGGSGGGGSGGGGSDIQMTQSPSSLSASVGDRVTITCRASQDIRNYLNWYQQKPGKAPKLLIYFTSTLHSGVPSRFSGSGSGTDFTLTISSLQPEDFATYYCQQGNTLPWTFGGGTKVEIK
heavy: not shown
notes: mab14-h16 scFv at the C-terminus of the Pem light chain
B7: bispecific antibody LB502 (bispecific antibody, human IgG4 S228P, kappa)
light: EIVLTQSPATLSLSPGERATLSCRASKGVSTSGYSYLHWYQQKPGQAPRLLIYLASYLESGVPARFSGSGSGTDFTLTISSLEPEDFAVYYCQHSRDLPLTFGGGTKVEIKRTVAAPSVFIFPPSDEQLKSGTASVVCLLNNFYPREAKVQWKVDNALQSGNSQESVTEQDSKDSTYSLSSTLTLSKADYEKHKVYACEVTHQGLSSPVTKSFNRGEC
heavy: not shown
notes: mab14-h16 scFv at the N-terminus of the Pem heavy chain
B8: bispecific antibody LB504 (bispecific antibody, human IgG4 S228P, kappa)
light: B7 light
heavy: not shown
notes: mab14-h16 scFv at the C-terminus of the Pem heavy chain
B9: bispecific antibody LB501 (bispecific antibody, human IgG4 S228P, kappa)
light: DIQMTQSPSSLSASVGDRVTITCRASQDIRNYLNWYQQKPGKAPKLLIYFTSTLHSGVPSRFSGSGSGTDFTLTISSLQPEDFATYYCQQGNTLPWTFGGGTKVEIKGGGGSGGGGSGGGGSQVQLVQSGAEVKKPGASVKVSCKASGYNFNIYWINWVRQAPGQGLEWIGNIYPSSISTNYNEKFKTRATLTVDKSTSTVYMELSSLRSEDTAVYYCARSEGTYYGGRYEGDWFGYWGQGTLVTVSSGGGGSGGGGSGGGGSEIVLTQSPATLSLSPGERATLSCRASKGVSTSGYSYLHWYQQKPGQAPRLLIYLASYLESGVPARFSGSGSGTDFTLTISSLEPEDFAVYYCQHSRDLPLTFGGGTKVEIKRTVAAPSVFIFPPSDEQLKSGTASVVCLLNNFYPREAKVQWKVDNALQSGNSQESVTEQDSKDSTYSLSSTLTLSKADYEKHKVYACEVTHQGLSSPVTKSFNRGEC
heavy: not shown
notes: mab14-h16 scFv at the N-terminus of the Pem light chain
B10: humanized antibody mab14-h11 (antibody, human IgG4 S228P, kappa, V domains shown)
VH: B1 VH with R38K, R67K, L83F
VL: B1 VL with G42K
notes: hIgG4, κ
B11: humanized antibody mab14-h2 (antibody, human IgG4 S228P, kappa, V domains shown)
VH: B1 VH with R38K, R67K, L83F
VL: B1 VL with P44V
notes: hIgG4, κ
B12: humanized antibody mab14-h4 (antibody, human IgG4 S228P, kappa, V domains shown)
VH: B1 VH with K74T
VL: B1 VL with P44V
notes: hIgG4, κ
B13: humanized antibody mab14-h9 (antibody, human IgG4 S228P, kappa, V domains shown)
VH: B1 VH with R38K, R67K, L83F
VL: B1 VL with T43A
notes: hIgG4, κ
B14: humanized antibody mab14-h8 (antibody, human IgG4 S228P, kappa, V domains shown)
VH: B1 VH with R38K, R67K, L83F
VL: B1 VL with Y71F
notes: hIgG4, κ
B15: humanized antibody mab14-h1 (antibody, human IgG4 S228P, kappa, V domains shown)
VH: B1 VH with I48M, A68V, L70M, V72R, K74T
VL: B1 VL with G42K, T43A, Y71F
notes: hIgG4, κ
B16: humanized antibody mab14-h3 (antibody, human IgG4 S228P, kappa, V domains shown)
VH: B1 VH with I48M, K74T
VL: B1 VL with P44V
notes: hIgG4, κ
B17: humanized antibody mab14-h10 (antibody, human IgG4 S228P, kappa, V domains shown)
VH: B1 VH with R38K, R67K, L83F
VL: B1 VL
notes: hIgG4, κ
B18: humanized antibody mab14-h7 (antibody, human IgG4 S228P, kappa, V domains shown)
VH: B1 VH with R38K, R67K, K74T
VL: B1 VL with P44V
notes: hIgG4, κ
B19: humanized antibody mab14-h6 (antibody, human IgG4 S228P, kappa, V domains shown)
VH: B1 VH with R38K, K74T
VL: B1 VL with P44V
notes: hIgG4, κ

Biological target: T1, human Sirpα-V1-hFc (human, UniProt P78324 31-373)
T1 construct: range 31-373; also called hSirpα (dimer); hSirpα-V1-hFc (dimer); not shown: human IgG1 Fc region at the C-terminus
Assay: blocking ELISA, competitor CD47-his
Description: (§1) The recombinant proteins such as human Sirpα-V1-hFc/Sirpα-V1-his were diluted to concentrations of 5 μg/mL or 2 μg/mL respectively with a PBS buffer at pH 7.4, and then added into a 96-well ELISA plate (Corning, CLS3590-100EA) at a volume of 50 μL/well, and placed in an incubator at 37° C. for 2 hours. After the liquid was discarded, the wells were added with a blocking solution of 5% skimmed milk (skimmed milk powder available from Bright Dairy) diluted with PBS at 230 μL/well, and incubated in an incubator at 37° C. for 3 hours, or placed overnight at 4° C. (for 16-18 hours) for blocking. […] The plate was washed for 5 times, added with 50 μL/well of streptavidin-HRP (GenScript, M00091) or anti-his-HRP secondary antibody (GenScript, A00612) diluted at 1:1000, incubated at 37° C. for 1 hour, and then washed with PBST for 5 times. Each well was added with 50 μL of TMB (Surmodic, Cat #: TTMB-1000-01) for color development, and added with 50 μL/well of 1 M H₂SO₄ to stop the reaction. The readings on a microplate reader (MultiskanGO Thermo, Model 51119200) were subjected to data analysis by GraphPad prism 5.

IC50	Binder
4.75 nM	B1
3.49 nM	B2
5.31 nM	B3
8.99 nM	B4
5.13 nM	B5

Biological target: T2, human Sirpα-V1-his (human, UniProt P78324 31-373)
T2 construct: range 31-373; Bought (Sino Biological 11612-H08H) or expressed in-house; also called hSirpα-V1; hSirpα-V1-his
Assay: blocking ELISA, competitor CD47-hFc
Description: (§2) The antigens PD-1 and Sirpα expressed according to the method of Example 1 were diluted with a PBS buffer at pH7.4 to a concentration of 2 μg/mL, added into a 96-well ELISA plate (Corning, CLS3590-100EA) at a volume of 50 μL/well, and incubated at 37° C. for 2 hours. After the liquid was discarded, the wells were added with a blocking solution of 5% skimmed milk (Sangon Biotech (Shanghai) Co., Ltd., A600669-0250) formulated with PBS at 200 μL/well, and incubated at 37° C. for 3 hours for blocking. […] The plate was washed with PBST for 5 times, added with 50 μL/well of HRP-labeled secondary antibody (GenScript Biotechnology Co., Ltd., M00091) diluted at 1:1000, and incubated at 37° C. for 1 hour. The plated was washed with PBST for 5 times, then added with 50 μl/well of TMB chromogenic substrate (KPL, 52-00-03), incubated at room temperature for 5-10 min, added with 50 μl/well of 1 M H₂SO₄ to stop the reaction, and read by a […] Go microplate reader (ThermoFisher, 51119200) for the absorbance value at 450 nm, and then IC₅₀ was calculated according to the OD value.

IC50	Binder
7.63 nM	B6
5.37 nM	B7
6.63 nM	B8
5.42 nM	B9

Biological target: T2, human Sirpα-V1-his
Assay: ELISA

EC50	Binder
0.057 nM	B1
0.073 nM	B10
0.092 nM	B2
0.089 nM	B3
0.061 nM	B4
0.073 nM	B11
0.088 nM	B12
0.062 nM	B13
0.067 nM	B14
0.148 nM	B15
0.103 nM	B16
0.068 nM	B17
0.077 nM	B5
0.081 nM	B18
0.095 nM	B19

Biological target: T3, human PD-1 (recombinant, hFc/his tag) (human, UniProt Q15116 21-167)
T3 construct: not shown: hFc or his tag
Assay: blocking ELISA, competitor PD-L1
Description: as §2

IC50	Binder
1.45 nM	B6
2 nM	B7
1.09 nM	B8
1.3 nM	B9

Biological target: T2, human Sirpα-V1-his
Assay: ELISA
Remark: another data set of the same source
Description: (§3) The self-expressed human PD-1, Sirpα and the like antigens of the present disclosure were diluted with a PBS buffer at pH7.4 to a concentration of 2 μg/mL according to different assays, and then added into a 96-well ELISA plate (Corning, CLS3590-100EA) at a volume of 50 μL/well, and placed in an incubator at 37° C. for 2 hours. After the liquid was discarded, the wells were added with a blocking solution of 5% skimmed milk (Sangon Biotech (Shanghai) Co., Ltd., A600669-0250) diluted with PBS at 200 μL/well, and incubated in an incubator at 37° C. for 3 hours, or placed overnight at 4° C. (for 16-18 hours) for blocking. The blocking solution was discarded, and the plate was washed with a PBST buffer (pH7.4 PBS containing 0.05% tween-20) for 5 times, then added with 50 μL/well of 5-fold serial dilution of the antibody to be tested in 1% BSA, and incubated at 37° C. for 1 hour. […] The plated was washed with PBST for 5 times, then added with 50 μL/well of TMB chromogenic substrate (KPL, 52-00-03), incubated at room temperature for 5-10 min, added with 50 μL/well of 1 M H₂SO₄ to stop the reaction, and read by a […] Go microplate reader (ThermoFisher, 51119200) for the absorbance value at 450 nm, and then EC₅₀ was calculated according to the OD value.
(§4) The aforementioned bispecific antibodies were cloned, expressed and purified according to the cloning, expression and purification methods of Example 1 of the present disclosure.

EC50	Binder
0.075 nM	B6
0.066 nM	B7
0.055 nM	B8
0.059 nM	B9

Biological target: T3, human PD-1 (recombinant, hFc/his tag)
Assay: ELISA
Description: as §3, §4

EC50	Binder
0.063 nM	B6
0.074 nM	B7
0.061 nM	B8
0.075 nM	B9

Biological target: T1, human Sirpα-V1-hFc
Assay: blocking ELISA, competitor CD47-his
Remark: another data set of the same source
Description: as §2

IC50	Binder
4.8 nM	B6
3.78 nM	B7
4.62 nM	B8
2.55 nM	B9

Biological target: T2, human Sirpα-V1-his
Assay: blocking ELISA, competitor CD47-hFc
Remark: another data set of the same source
Description: as §1

IC50	Binder
9.1 nM	B1
8.08 nM	B2
9.56 nM	B3
8.47 nM	B4
7.37 nM	B5
